Laboratory results taken from patent US20250312499A1, “KISSPEPTIN RECEPTOR (KISS1R) TARGETED THERAPEUTICS AND USES THEREOF” (priority 2024, published 2025).
Numbered stars: 1 amine (or outer) side, 2 acyl side, 3 side chain; on linkers, the order of the positions; unused ones are H or OH. Square brackets hold non-standard residues; d marks the D form. * marks the point of attachment. X2 = 4‑amino‑1‑((3-fluoro-4-methylbenzyl)glycyl)piperidine‑4‑carboxylic acid, Cc1ccc(CN(CC(=O)N2CCC(N[*:1])(C(=O)[*:2])CC2)[*:3])cc1F; DOTA = O=C(O)CN1CCN(CC(=O)O)CCN(CC(=O)*)CCN(CC(=O)O)CC1; Api(1-amidino) = N=C(N)N1CCC(N)(C(=O)O)CC1; Phe(4-CN) = N#Cc1ccc(C[C@H](N)C(=O)O)cc1; HO(CH2CH2O)2CH2CH2CO = O=C(CCOCCOCCO)*; 2Nal = N[C@@H](Cc1ccc2ccccc2c1)C(=O)O; d2Nal = N[C@H](Cc1ccc2ccccc2c1)C(=O)O; 4Pal = N[C@@H](Cc1ccncc1)C(=O)O; d4Pal = N[C@H](Cc1ccncc1)C(=O)O; 4Amb = NCc1ccc(C(=O)O)cc1; APM = not defined here; Ahx = NCCCCCC(=O)O; azaGly = NNC(=O)O

B1: Compound 238 (peptide)
peptide: {DOTA-Ahx}-ENTF[azaGly]L[X2]W-NH2
SMILES: Cc1ccc(CNCC(=O)N2CCC(NC(=O)[C@H](CC(C)C)NC(=O)NNC(=O)[C@H](Cc3ccccc3)NC(=O)[C@@H](NC(=O)[C@H](CC(N)=O)NC(=O)[C@H](CCC(=O)O)NC(=O)CCCCCNC(=O)CN3CCN(CC(=O)O)CCN(CC(=O)O)CCN(CC(=O)O)CC3)[C@@H](C)O)(C(=O)N[C@@H](Cc3c[nH]c4ccccc34)C(N)=O)CC2)cc1F
B2: Compound 253 (peptide)
peptide: {HO(CH2CH2O)2CH2CH2CO}-K(DOTA)NTF[azaGly]L[X2][4Pal]-NH2
SMILES: Cc1ccc(CNCC(=O)N2CCC(NC(=O)[C@H](CC(C)C)NC(=O)NNC(=O)[C@H](Cc3ccccc3)NC(=O)[C@@H](NC(=O)[C@H](CC(N)=O)NC(=O)[C@H](CCCCNC(=O)CN3CCN(CC(=O)O)CCN(CC(=O)O)CCN(CC(=O)O)CC3)NC(=O)CCOCCOCCO)[C@@H](C)O)(C(=O)N[C@@H](Cc3ccncc3)C(N)=O)CC2)cc1F
B3: Compound 254 (peptide)
peptide: {HO(CH2CH2O)2CH2CH2CO}-[dK](DOTA)NTF[azaGly]L[X2][4Pal]-NH2
SMILES: Cc1ccc(CNCC(=O)N2CCC(NC(=O)[C@H](CC(C)C)NC(=O)NNC(=O)[C@H](Cc3ccccc3)NC(=O)[C@@H](NC(=O)[C@H](CC(N)=O)NC(=O)[C@@H](CCCCNC(=O)CN3CCN(CC(=O)O)CCN(CC(=O)O)CCN(CC(=O)O)CC3)NC(=O)CCOCCOCCO)[C@@H](C)O)(C(=O)N[C@@H](Cc3ccncc3)C(N)=O)CC2)cc1F
B4: Compound 11 (peptide)
peptide: {DOTA-Ahx}-FGL[X2]Y-NH2
SMILES: Cc1ccc(CNCC(=O)N2CCC(NC(=O)[C@H](CC(C)C)NC(=O)CNC(=O)[C@H](Cc3ccccc3)NC(=O)CCCCCNC(=O)CN3CCN(CC(=O)O)CCN(CC(=O)O)CCN(CC(=O)O)CC3)(C(=O)N[C@@H](Cc3ccc(O)cc3)C(N)=O)CC2)cc1F
B5: Compound 292 (peptide)
peptide: {DOTA-Ahx}-[d2Nal]NTF[azaGly]L[X2][4Pal]-NH2
SMILES: Cc1ccc(CNCC(=O)N2CCC(NC(=O)[C@H](CC(C)C)NC(=O)NNC(=O)[C@H](Cc3ccccc3)NC(=O)[C@@H](NC(=O)[C@H](CC(N)=O)NC(=O)[C@@H](Cc3ccc4ccccc4c3)NC(=O)CCCCCNC(=O)CN3CCN(CC(=O)O)CCN(CC(=O)O)CCN(CC(=O)O)CC3)[C@@H](C)O)(C(=O)N[C@@H](Cc3ccncc3)C(N)=O)CC2)cc1F
B6: Compound 241 (peptide)
peptide: {DOTA-4Amb}-ENTF[azaGly]L[X2][Phe(4-CN)]-NH2
SMILES: Cc1ccc(CNCC(=O)N2CCC(NC(=O)[C@H](CC(C)C)NC(=O)NNC(=O)[C@H](Cc3ccccc3)NC(=O)[C@@H](NC(=O)[C@H](CC(N)=O)NC(=O)[C@H](CCC(=O)O)NC(=O)c3ccc(CNC(=O)CN4CCN(CC(=O)O)CCN(CC(=O)O)CCN(CC(=O)O)CC4)cc3)[C@@H](C)O)(C(=O)N[C@@H](Cc3ccc(C#N)cc3)C(N)=O)CC2)cc1F
B7: Compound 295 (peptide)
peptide: {DOTA-Ahx}-[d4Pal]NTF[azaGly]L[X2][4Pal]-NH2
SMILES: Cc1ccc(CNCC(=O)N2CCC(NC(=O)[C@H](CC(C)C)NC(=O)NNC(=O)[C@H](Cc3ccccc3)NC(=O)[C@@H](NC(=O)[C@H](CC(N)=O)NC(=O)[C@@H](Cc3ccncc3)NC(=O)CCCCCNC(=O)CN3CCN(CC(=O)O)CCN(CC(=O)O)CCN(CC(=O)O)CC3)[C@@H](C)O)(C(=O)N[C@@H](Cc3ccncc3)C(N)=O)CC2)cc1F
B8: Compound 272 (peptide)
peptide: {DOTA-4Amb}-NTF[azaGly]L[Api(1-amidino)][4Pal]-NH2
SMILES: CC(C)C[C@H](NC(=O)NNC(=O)[C@H](Cc1ccccc1)NC(=O)[C@@H](NC(=O)[C@H](CC(N)=O)NC(=O)c1ccc(CNC(=O)CN2CCN(CC(=O)O)CCN(CC(=O)O)CCN(CC(=O)O)CC2)cc1)[C@@H](C)O)C(=O)NC1(C(=O)N[C@@H](Cc2ccncc2)C(N)=O)CCN(C(=N)N)CC1
B9: Compound 266 (peptide)
peptide: {DOTA}-[dY][2Nal]NTF[azaGly]L[Api(1-amidino)]W-NH2
SMILES: CC(C)C[C@H](NC(=O)NNC(=O)[C@H](Cc1ccccc1)NC(=O)[C@@H](NC(=O)[C@H](CC(N)=O)NC(=O)[C@H](Cc1ccc2ccccc2c1)NC(=O)[C@@H](Cc1ccc(O)cc1)NC(=O)CN1CCN(CC(=O)O)CCN(CC(=O)O)CCN(CC(=O)O)CC1)[C@@H](C)O)C(=O)NC1(C(=O)N[C@@H](Cc2c[nH]c3ccccc23)C(N)=O)CCN(C(=N)N)CC1
B10: Compound 242 (peptide)
peptide: {DOTA-4Amb}-[dE]NTF[azaGly]L[X2][Phe(4-CN)]-NH2
SMILES: Cc1ccc(CNCC(=O)N2CCC(NC(=O)[C@H](CC(C)C)NC(=O)NNC(=O)[C@H](Cc3ccccc3)NC(=O)[C@@H](NC(=O)[C@H](CC(N)=O)NC(=O)[C@@H](CCC(=O)O)NC(=O)c3ccc(CNC(=O)CN4CCN(CC(=O)O)CCN(CC(=O)O)CCN(CC(=O)O)CC4)cc3)[C@@H](C)O)(C(=O)N[C@@H](Cc3ccc(C#N)cc3)C(N)=O)CC2)cc1F
B11: Compound 10 (peptide)
peptide: {DOTA-Ahx}-FGL[X2]W-NH2
SMILES: Cc1ccc(CNCC(=O)N2CCC(NC(=O)[C@H](CC(C)C)NC(=O)CNC(=O)[C@H](Cc3ccccc3)NC(=O)CCCCCNC(=O)CN3CCN(CC(=O)O)CCN(CC(=O)O)CCN(CC(=O)O)CC3)(C(=O)N[C@@H](Cc3c[nH]c4ccccc34)C(N)=O)CC2)cc1F
B12: Compound 1 (peptide)
peptide: {DOTA-Ahx}-[dY][dW]NTF[azaGly]L[X2]W-NH2
SMILES: Cc1ccc(CNCC(=O)N2CCC(NC(=O)[C@H](CC(C)C)NC(=O)NNC(=O)[C@H](Cc3ccccc3)NC(=O)[C@@H](NC(=O)[C@H](CC(N)=O)NC(=O)[C@@H](Cc3c[nH]c4ccccc34)NC(=O)[C@@H](Cc3ccc(O)cc3)NC(=O)CCCCCNC(=O)CN3CCN(CC(=O)O)CCN(CC(=O)O)CCN(CC(=O)O)CC3)[C@@H](C)O)(C(=O)N[C@@H](Cc3c[nH]c4ccccc34)C(N)=O)CC2)cc1F
B13: Compound 290 (peptide)
peptide: {DOTA-Ahx}-[dW]NTF[azaGly]L[X2][4Pal]-NH2
SMILES: Cc1ccc(CNCC(=O)N2CCC(NC(=O)[C@H](CC(C)C)NC(=O)NNC(=O)[C@H](Cc3ccccc3)NC(=O)[C@@H](NC(=O)[C@H](CC(N)=O)NC(=O)[C@@H](Cc3c[nH]c4ccccc34)NC(=O)CCCCCNC(=O)CN3CCN(CC(=O)O)CCN(CC(=O)O)CCN(CC(=O)O)CC3)[C@@H](C)O)(C(=O)N[C@@H](Cc3ccncc3)C(N)=O)CC2)cc1F
B14: Compound 270 (peptide)
peptide: {DOTA-Ahx-4Amb}-[dY][dW]NTF[azaGly]L[Api(1-amidino)]W-NH2
SMILES: CC(C)C[C@H](NC(=O)NNC(=O)[C@H](Cc1ccccc1)NC(=O)[C@@H](NC(=O)[C@H](CC(N)=O)NC(=O)[C@@H](Cc1c[nH]c2ccccc12)NC(=O)[C@@H](Cc1ccc(O)cc1)NC(=O)c1ccc(CNC(=O)CCCCCNC(=O)CN2CCN(CC(=O)O)CCN(CC(=O)O)CCN(CC(=O)O)CC2)cc1)[C@@H](C)O)C(=O)NC1(C(=O)N[C@@H](Cc2c[nH]c3ccccc23)C(N)=O)CCN(C(=N)N)CC1
B15: Compound 291 (peptide)
peptide: {DOTA-Ahx}-[dY]NTF[azaGly]L[X2][4Pal]-NH2
SMILES: Cc1ccc(CNCC(=O)N2CCC(NC(=O)[C@H](CC(C)C)NC(=O)NNC(=O)[C@H](Cc3ccccc3)NC(=O)[C@@H](NC(=O)[C@H](CC(N)=O)NC(=O)[C@@H](Cc3ccc(O)cc3)NC(=O)CCCCCNC(=O)CN3CCN(CC(=O)O)CCN(CC(=O)O)CCN(CC(=O)O)CC3)[C@@H](C)O)(C(=O)N[C@@H](Cc3ccncc3)C(N)=O)CC2)cc1F

target: human kisspeptin receptor (KISS1R) (human), Q969F8; assay: radioligand competition, hKISS1R membranes; legend: A is <10 nM
Sequence (Q969F8 whole entry): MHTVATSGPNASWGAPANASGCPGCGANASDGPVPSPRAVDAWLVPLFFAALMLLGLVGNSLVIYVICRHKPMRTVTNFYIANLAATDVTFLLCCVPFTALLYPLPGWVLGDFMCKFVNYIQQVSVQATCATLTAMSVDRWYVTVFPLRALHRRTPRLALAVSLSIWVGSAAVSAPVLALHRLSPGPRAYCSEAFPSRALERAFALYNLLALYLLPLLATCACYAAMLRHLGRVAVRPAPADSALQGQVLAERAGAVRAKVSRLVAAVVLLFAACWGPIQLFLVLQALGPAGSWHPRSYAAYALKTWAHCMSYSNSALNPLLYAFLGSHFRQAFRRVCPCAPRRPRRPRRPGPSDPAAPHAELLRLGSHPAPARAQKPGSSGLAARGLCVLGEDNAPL

Row | Binder | Ki [nM]
1 | B1 | < 10
2 | {1‑hydroxy‑3,6,9,12,15,18,21,24‑octaoxaheptacosan‑27‑oyl}-K(DOTA)NTF[azaGly]L[X2][4Pal]-NH2 [Compound 256] | < 10
3 | B2 | < 10
4 | {3‑(2-(2-methoxyethoxy)ethoxy)propanoyl}-K(DOTA)NTF[azaGly]L[X2][4Pal]-NH2 [Compound 255] | < 10
5 | B3 | < 10
6 | {DOTA-4Amb}-NTFGL[X2][Phe(4-CN)]-NH2 (not fully specified) [Compound 240] | < 10
7 | {DOTA-APM}-F[azaGly]L[X2]Y-NH2 (reading uncertain) [Compound 247] | < 10
8 | B4 | < 10
9 | {DOTA-APM}-NTF[azaGly]L[X2]Y-NH2 (reading uncertain) [Compound 249] | < 10
10 | {DOTA-APM}-F[azaGly]L[X2][Phe(4-CN)]-NH2 (reading uncertain) [Compound 244] | < 10
11 | {DOTA-APM}-F[azaGly]L[X2]F-NH2 (reading uncertain) [Compound 245] | < 10
12 | {DOTA-Ahx}-[dY][dW]NTF[azaGly]L[Apc(OMe)][4Pal]-NH2 [Compound 293] | < 10
13 | B5 | < 10
14 | B6 | < 10
15 | B7 | < 10
16 | B8 | < 10
17 | {DOTA-APM}-TF[azaGly]L[X2]Y-NH2 (reading uncertain) [Compound 250] | < 10
18 | B9 | < 10
19 | B10 | < 10
20 | B11 | < 10
21 | B12 | < 10
22 | {3‑(2-(2-methoxyethoxy)ethoxy)propanoyl}-K(DOTA)NTF[azaGly]L[Api(1-amidino)]W-NH2 [Compound 264] | < 10
23 | B13 | < 10
24 | B14 | < 10
25 | B15 | < 10
